Assay results: patent US20240228647A1, “OFATUMUMAB FOR TREATING MULTIPLE SCLEROSIS IN ASIAN PATIENTS” (Novartis AG, priority 2021, published 2024)
Like-named read-outs stand apart in the source and are kept apart here. Marks after values point to notes of the source that are not given here.

Tests used:
Format in all cases: in vivo, human
patients with RMS [1] = test: Gd-enhancing T1 lesions per scan, Phase III Studies I and II; conditions: for Gd-enhancing T1 lesions rate reduction (%): vs teriflunomide
Experimental: (§1) Ofatumumab was investigated in 1882 patients with RMS from two identical Phase III randomized, double-blind, double-dummy, active-comparator controlled, parallel-group, multicenter studies of identical design (Study I and Study II). Patients were randomized to receive either ofatumumab, OMB (20 mg s.c injections every 4 weeks, after an initial loading regimen of 3 injections on Day 1, 7, and 14), or teriflunomide, TER (14 mg p.o. once a day) as active comparator. For brevity, the teriflunomide data are not shown hereinafter.
(§2) The maximum treatment duration for an individual patient was 30 study months (approximately 2.5 years). The two studies included a total of 71 patients of Asian race (36 patients in ofatumumab and 35 patients in teriflunomide treatment groups). This Example also includes the Asian patients data from oncology studies (Study A and Study B), as supportive data, where required.
The number of Gd-enhancing T1 lesions per scan was a key secondary efficacy endpoint in the pivotal Phase III studies.

patients with RMS [2] = test: Annualized rate of new or enlarging T2 lesions, Phase III Studies I and II; conditions: for New or enlarging T2 lesions rate reduction (%): vs teriflunomide
Experimental: as §1, §2
The annualized rate of new or enlarging T2 lesions was a key secondary efficacy endpoint in the pivotal Phase III studies.

patients with RMS [3] = tested on: patients with RMS
Experimental: as §1, §2
For the safety analyses of this report, non-serious treatment emergent adverse events (TEAEs) up to and including safety cut-off (i.e. 100 days after last study drug administration) and serious TEAEs regardless of the safety cutoff were considered (if reported prior to the data cut-off of Studies I and II). Common terminology criteria for adverse events (CTCAE) grading was used to record the severity of each AE. The latest version of CTCAE available at the time of TEAE reporting was used. […] The three most frequently reported AEs by SOC were ‘General disorders and administration site conditions’ ‘Infections and infestations’ and ‘Injury, poisoning and procedural complications’ in the Asian and ROW subgroups by race (Table 7). […] In the Asian subgroup, 1 patient experienced SAEs of urinary tract infections, urosepsis and testicular infarction in the ofatumumab group and 1 patient reported an SAE of nephrolithiasis in the teriflunomide group (Table 8). Due to the small number of Asian patients by race and region, results should be interpreted with caution.
AEs of special interest were summarized by risk name, PT and treatment. Furthermore, the incidence of any AE that fulfilled the search terms as defined in eCRS were summarized by risk name, level, and maximum CTCAE grade. In this section, AESIs are first described for subgroups by race and then by region. […] The definitions of AEs of special interest correspond to the identified or potential risks for ofatumumab and its class of drug as well as those for the comparator (teriflunomide). AESIs, based on the safety profiles of ofatumumab, comparator, and other anti-CD20 mABs are: • Injection-related reactions including injection-systemic reaction and injection-site • reactions • Infections, including opportunistic infections, HBV infection reactivation and PML • Malignant and premalignant disorders • Hepatic Safety • Neutropenia

serum IgG and IgM levels = test: Serum IgG and IgM levels under long-term ofatumumab treatment
Experimental: Serum immunoglobulin (Ig) levels can be determined routinely in clinical practice. In the present application serum Ig levels can preferably be determined by immunoturbidimetry. Preferably a Roche cobas® Analyzer was used, especially module c of the cobas® analyser. In a preferred embodiment Ig levels can be determined by using a cobas® c 311 analyzer. It is further preferred that IgG measurements are carried out as described in the cobas® leaflet “IGG-2 Tina-quant IgG Gen.2”, preferably version 11.0 dated 2016-02 and IgM measurements as described in the leaflet “IGM-2 Tina-quant IgM Gen.2”, preferably version 13.0 dated 2018-11.
Serum samples were preferably kept at 2-8° C. before measurement.
Patients were subjected to a long term treatment. Patients received ofatumumab 20 mg sc injections every 4 weeks (after an initial loading regimen of 20 mg sc doses on weeks 0, 1 and 2).

Substance: ofatumumab [OMB]
- Gd-enhancing lesions/number of scans (lesion rate) (patients with RMS [1]; Asian): (0.019)
- Number of Gd-enhancing lesions (patients with RMS [1]; Asian): 1/54
- Gd-enhancing lesions/number of scans (lesion rate) (patients with RMS [1]; Rest of World): (0.031)
- Number of Gd-enhancing lesions (patients with RMS [1]; Rest of World): 51/1666
- Reduction of mean number of Gd-enhancing T1 lesions per scan compared with teriflunomide (patients with RMS [1]; overall population): 95.8%
- Gd-enhancing T1 lesions rate reduction (%) (patients with RMS [1]; Asian): 93.8/0.022* %
- Gd-enhancing T1 lesions rate reduction (%) (patients with RMS [1]; Rest of World): 95.9/<0.001* %
- New or enlarging lesions/patient years (lesion years) (patients with RMS [2]; Asian): (1.00)
- Number of new or enlarging lesions (patients with RMS [2]; Asian): 44/44
- New or enlarging lesions/patient years (lesion years) (patients with RMS [2]; Rest of World): (0.84
- Number of new or enlarging lesions (patients with RMS [2]; Rest of World): 1185/1404
- Reduction of rate of new or enlarging T2 lesions compared with teriflunomide (patients with RMS [2]; overall population): 82.9%
- New or enlarging T2 lesions rate reduction (%) (patients with RMS [2]; Asian): 59.0/0.041* %
- New or enlarging T2 lesions rate reduction (%) (patients with RMS [2]; Rest of World): 83.3/<0.001* %
- TEAE: Gastrointestinal disorders, % (patients with RMS [3]; Asian (race)): (11.1) %
- TEAE: Nervous system disorders, % (patients with RMS [3]; Asian (race)): (11.1) %
- TEAE: Reproductive system and breast disorders, % (patients with RMS [3]; Asian (race)): (11.1) %
- AESI: Injection-site reaction (any reaction), % (patients with RMS [3]; Rest of World (race)): (11.1) %
- AE by PT: alopecia, % (patients with RMS [3]; in vivo): 5.7%
- AE by PT: alopecia, patients (patients with RMS [3]; in vivo): 52
- AE by PT: nasopharyngitis, % (patients with RMS [3]; in vivo): 18.5%
- AE by PT: nasopharyngitis, patients (patients with RMS [3]; in vivo): 168
- AE by PT: pyrexia, % (patients with RMS [3]; in vivo): 33.3%
- AE by PT: pyrexia, patients (patients with RMS [3]; in vivo): 12
- AE by PT: upper respiratory tract infection, % (patients with RMS [3]; in vivo): 11.1%
- AE by PT: upper respiratory tract infection, patients (patients with RMS [3]; in vivo): 4
- AESI Neutropenia, % (patients with RMS [3]; in vivo): (1.0) %
- AESI: Drug abuse and dependence, % (patients with RMS [3]; in vivo): 0.1%
- AESI: Drug abuse and dependence, number of events [E] (patients with RMS [3]; in vivo): 1
- AESI: Herpes viral infections, % (patients with RMS [3]; in vivo): 5.1%
- AESI: Herpes viral infections, number of events [E] (patients with RMS [3]; in vivo): 61
- AESI: Injection-site reaction (any reaction), % (patients with RMS [3]; in vivo): (2.8) %
- AESI: Lower Respiratory tract Infections, % (patients with RMS [3]; in vivo): 3.3%
- AESI: Lower Respiratory tract Infections, number of events [E] (patients with RMS [3]; in vivo): 31
- AESI: Neoplasms, % (patients with RMS [3]; in vivo): 2.6%
- AESI: Neoplasms, number of events [E] (patients with RMS [3]; in vivo): 28
- AESI: Neutropenia, % (patients with RMS [3]; in vivo): 1.0%
- AESI: Neutropenia, number of events [E] (patients with RMS [3]; in vivo): 13
- AESI: Opportunistic infections, % (patients with RMS [3]; in vivo): 0.1%
- AESI: Opportunistic infections, number of events [E] (patients with RMS [3]; in vivo): 1
- AESI: Pregnancy, % (patients with RMS [3]; in vivo): 0.1%
- AESI: Pregnancy, number of events [E] (patients with RMS [3]; in vivo): 1
- AESI: Premalignant disorders, % (patients with RMS [3]; in vivo): 0.8%
- AESI: Premalignant disorders, number of events [E] (patients with RMS [3]; in vivo): 9
- AESI: Risk of malignancy, % (patients with RMS [3]; in vivo): 0.5%
- AESI: Risk of malignancy, number of events [E] (patients with RMS [3]; in vivo): 5
- AESI: Suicidal Ideation and Behavior, % (patients with RMS [3]; in vivo): 0.9%
- AESI: Suicidal Ideation and Behavior, number of events [E] (patients with RMS [3]; in vivo): 9
- AESI: Urinary tract infection, number of events [E] (patients with RMS [3]; in vivo): 4
- AESI: Varicella-Zoster virus infections, % (patients with RMS [3]; in vivo): 2.0%
- AESI: Varicella-Zoster virus infections, number of events [E] (patients with RMS [3]; in vivo): 19
- Drug abuse and dependence, % (patients with RMS [3]; in vivo): (0.1) %
- Pregnancy, % (patients with RMS [3]; in vivo): (0.1) %
- SAE by PT: Appendicitis, % (patients with RMS [3]; in vivo): 0.9%
- SAE by PT: Appendicitis, patients (patients with RMS [3]; in vivo): 8
- Serious TEAE: Blood and lymphatic system disorders, % (patients with RMS [3]; in vivo): (0.2) %
- Serious TEAE: Cardiac disorders, % (patients with RMS [3]; in vivo): (0.3) %
- Serious TEAE: Ear and labyrinth disorders, % (patients with RMS [3]; in vivo): (0.3) %
- Serious TEAE: Gastrointestinal disorders, % (patients with RMS [3]; in vivo): (0.9) %
- Serious TEAE: General disorders and administration site conditions, % (patients with RMS [3]; in vivo): (0.3) %
- Serious TEAE: Hepatobiliary disorders, % (patients with RMS [3]; in vivo): (0.5) %
- Serious TEAE: Immune system disorders, % (patients with RMS [3]; in vivo): (0.1) %
- Serious TEAE: Injury, poisoning and procedural complications, % (patients with RMS [3]; in vivo): (1.4%
- Serious TEAE: Investigations, % (patients with RMS [3]; in vivo): (0.2) %
- Serious TEAE: Musculoskeletal and connective tissue disorders, % (patients with RMS [3]; in vivo): (0.9) %
- Serious TEAE: Neoplasms benign, malignant and unspecified (incl cysts and polyps), % (patients with RMS [3]; in vivo): (1.0) %
- Serious TEAE: Nervous system disorders, % (patients with RMS [3]; in vivo): (0.8) %
- Serious TEAE: Psychiatric disorders, % (patients with RMS [3]; in vivo): (1.1) %
- Serious TEAE: Respiratory, thoracic and mediastinal disorders, % (patients with RMS [3]; in vivo): (0.2) %
- Serious TEAE: Skin and subcutaneous tissue disorders, % (patients with RMS [3]; in vivo): (0.1) %
- TEAE: Cardiac disorders, % (patients with RMS [3]; in vivo): (2.9) %
- TEAE: Congenital, familial and genetic disorders, % (patients with RMS [3]; in vivo): (0.1) %
- TEAE: Endocrine disorders, % (patients with RMS [3]; in vivo): (1.0) %
- TEAE: Gastrointestinal disorders, % (patients with RMS [3]; in vivo): (24.2) %
- TEAE: Hepatobiliary disorders, % (patients with RMS [3]; in vivo): (1.9) %
- TEAE: Immune system disorders, % (patients with RMS [3]; in vivo): (1.8) %
- TEAE: Neoplasms benign, malignant and unspecified (incl cysts and polyps), % (patients with RMS [3]; in vivo): (2.6) %
- TEAE: Nervous system disorders, % (patients with RMS [3]; in vivo): (29.5) %
- TEAE: Reproductive system and breast disorders, % (patients with RMS [3]; in vivo): (5.9) %
- TEAE: Social circumstances, % (patients with RMS [3]; in vivo): (0.3) %
- TEAE: Vascular disorders, % (patients with RMS [3]; in vivo): (6.0) %
- IgM levels with longer duration (serum IgG and IgM levels; 20 mg sc every 4 weeks, FIGS. 3 and 4): A reduction in IgM levels
- IgG levels over the long-term follow-up (serum IgG and IgM levels; 20 mg sc every 4 weeks, follow-up of >4 years, FIG. 1): stable
- IgM levels versus lower limit of normal (serum IgG and IgM levels; 20 mg sc every 4 weeks, longer duration, FIGS. 3 and 4): levels remained above the lower limit of normal
- Increase of IgG levels (serum IgG and IgM levels; after two years (96 weeks), FIG. 6): about 3%
